B1: Bcl-2-like protein 12 (Homo sapiens), Q9HB09 (parent)
chain: MAGSEELGLREDTLRVLAAFLRRGEAAGSPVPTPPRSPAQEEPTDFLSRLRRCLPCSLGRGAAPSESPRPCSLPIRPCYGLEPGPATPDFYALVAQRLEQLVQEQLKSPPSPELQGPPSTEKEAILRRLVALLEEEAEVINQKLASDPALRSKLVRLSSDSFARLVELFCSRDDSSRPSRACPGPPPPSPEPLARLALAMELSRRVAGLGGTLAGLSVEHVHSFTPWIQAHGGWEGILAVSPVDLNLPLD

Variants of: B1
Details: with BCL2L1, Q07817-1
BCL2L1, Q07817-1, sequence (Q07817 whole entry): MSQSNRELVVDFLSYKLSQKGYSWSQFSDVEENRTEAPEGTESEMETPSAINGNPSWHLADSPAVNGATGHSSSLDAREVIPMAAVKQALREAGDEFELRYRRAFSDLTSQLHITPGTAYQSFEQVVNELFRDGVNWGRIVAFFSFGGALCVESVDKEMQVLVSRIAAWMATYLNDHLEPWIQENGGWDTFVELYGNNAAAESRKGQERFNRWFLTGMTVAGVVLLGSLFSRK
MAGSEELGLREDTLRVLAAFLRRGEAAGSPVPTPPRSPAQEEPTDFLSRLRRCLPCSLGRGAAPSESPRPCSLPIRPCYGLEPGPATPDFYALVAQRLEQLVQEQLKSPPSPELQGPPSTEKEAILRRAVALLEEEAEVINQKLASDPALRSKLVRLSSDSFARLVELFCSRDDSSRPSRACPGPPPPSPEPLARLALAMELSRRVAGLGGTLAGLSVEHVHSFTPWIQAHGGWEGILAVSPVDLNLPLD [L129A] was tested, and the “effect of a mutation on the interaction” value was “disrupting interaction strength”.

Variants of: B1
Details: with bcl2_human BCL2, P10415
bcl2_human BCL2, P10415, sequence (P10415 whole entry): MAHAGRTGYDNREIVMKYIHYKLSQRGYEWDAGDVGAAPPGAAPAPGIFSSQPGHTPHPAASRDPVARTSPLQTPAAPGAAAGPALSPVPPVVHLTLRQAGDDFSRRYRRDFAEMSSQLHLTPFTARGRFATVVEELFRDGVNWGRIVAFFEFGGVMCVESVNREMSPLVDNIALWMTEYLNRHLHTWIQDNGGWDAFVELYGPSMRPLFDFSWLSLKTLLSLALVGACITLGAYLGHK
In the case of MAGSEELGLREDTLRVLAAFLRRGEAAGSPVPTPPRSPAQEEPTDFLSRLRRCLPCSLGRGAAPSESPRPCSLPIRPCYGLEPGPATPDFYALVAQRLEQLVQEQLKSPPSPELQGPPSTEKEAILRRAVALLEEEAEVINQKLASDPALRSKLVRLSSDSFARLVELFCSRDDSSRPSRACPGPPPPSPEPLARLALAMELSRRVAGLGGTLAGLSVEHVHSFTPWIQAHGGWEGILAVSPVDLNLPLD [L129A], the “effect of a mutation on the interaction” value is reported as “disrupting interaction strength”.

Variants of: B1
Details: with bax_human BAX
MAGSEELGLREDTLRVLAAFLRRGEAAGSPVPTPPRSPAQEEPTDFLSRLRRCLPCSLGRGAAPSESPRPCSLPIRPCYGLEPGPATPDFYALVAQRLEQLVQEQLKSPPSPELQGPPSTEKEAILRRAVALLEEEAEVINQKLASDPALRSKLVRLSSDSFARLVELFCSRDDSSRPSRACPGPPPPSPEPLARLALAMELSRRVAGLGGTLAGLSVEHVHSFTPWIQAHGGWEGILAVSPVDLNLPLD [L129A] was tested, and the “effect of a mutation on the interaction” value was “with no effect”. With MAGSEELGLREDTLRVLAAFLRRGEAAGSPVPTPPRSPAQEEPTDFLSRLRRCLPCSLGRGAAPSESPRPCSLPIRPCYGLEPGPATPDFYALVAQRLEQLVQEQLKSPPSPELQGPPSTEKEAALRRLVALLEEEAEVINQKLASDPALRSKLVRLSSDSFARLVELFCSRDDSSRPSRACPGPPPPSPEPLARLALAMELSRRVAGLGGTLAGLSVEHVHSFTPWIQAHGGWEGILAVSPVDLNLPLD [I125A] the “effect of a mutation on the interaction” value was “with no effect”. MAGSEELGLREDTLRVLAAFLRRGEAAGSPVPTPPRSPAQEEPTDFLSRLRRCLPCSLGRGAAPSESPRPCSLPIRPCYGLEPGPATPDFYALVAQRLEQLVQEQLKSPPSPELQGPPSTEKEAILRRLVALLEEAAEVINQKLASDPALRSKLVRLSSDSFARLVELFCSRDDSSRPSRACPGPPPPSPEPLARLALAMELSRRVAGLGGTLAGLSVEHVHSFTPWIQAHGGWEGILAVSPVDLNLPLD [E136A] was tested, and the “effect of a mutation on the interaction” value was “with no effect”. With MAGSEELGLREDTLRVLAAFLRRGEAAGSPVPTPPRSPAQEEPTDFLSRLRRCLPCSLGRGAAPSESPRPCSLPIRPCYGLEPGPATPDFYALVAQRLEQLVQEQLKSPPSPELQGPPSTEKEAILRRLVALAEEEAEVINQKLASDPALRSKLVRLSSDSFARLVELFCSRDDSSRPSRACPGPPPPSPEPLARLALAMELSRRVAGLGGTLAGLSVEHVHSFTPWIQAHGGWEGILAVSPVDLNLPLD [L133A] the “effect of a mutation on the interaction” value was “with no effect”. In the case of MAGSEELGLREDTLRVLAAFLRRGEAAGSPVPTPPRSPAQEEPTDFLSRLRRCLPCSLGRGAAPSESPRPCSLPIRPCYGLEPGPATPDFYALVAQRLEQLVQEQLKSPPSPELQGPPSTEKEAILRRLVAALEEEAEVINQKLASDPALRSKLVRLSSDSFARLVELFCSRDDSSRPSRACPGPPPPSPEPLARLALAMELSRRVAGLGGTLAGLSVEHVHSFTPWIQAHGGWEGILAVSPVDLNLPLD [L132A], the “effect of a mutation on the interaction” value is reported as “with no effect”. With MAGSEELGLREDTLRVLAAFLRRGEAAGSPVPTPPRSPAQEEPTDFLSRLRRCLPCSLGRGAAPSESPRPCSLPIRPCYGLEPGPATPDFYALVAQRLEQLVQEQLKSPPSPELQGPPSTEKEAILRRLVALLAEEAEVINQKLASDPALRSKLVRLSSDSFARLVELFCSRDDSSRPSRACPGPPPPSPEPLARLALAMELSRRVAGLGGTLAGLSVEHVHSFTPWIQAHGGWEGILAVSPVDLNLPLD [E134A] the “effect of a mutation on the interaction” value was “with no effect”.

Variants of: B1
Details: with gsk3b_human GSK3B
For MAGSEELGLREDTLRVLAAFLRRGEAAGSPVPTPPRSPAQEEPTDFLSRLRRCLPCSLGRGAAPSESPRPCSLPIRPCYGLEPGPATPDFYALVAQRLEQLVQEQLKSPPSPELQGPPSTEKEAALRRLVALLEEEAEVINQKLASDPALRSKLVRLSSDSFARLVELFCSRDDSSRPSRACPGPPPPSPEPLARLALAMELSRRVAGLGGTLAGLSVEHVHSFTPWIQAHGGWEGILAVSPVDLNLPLD [I125A], the “effect of a mutation on the interaction” value was “disrupting interaction strength”.

From IntAct's records for PubMed 29749471
